Measured values as given in publication PMC10179534, “Maize Transcription Factor ZmHsf28 Positively Regulates Plant Drought Tolerance”.

B1: pZmAAO4 HSE probe (dsDNA)
DNA 1: TCTTAATCTCCTAGAAAAATACGGT
DNA 2: ACCGTATTTTTCTAGGAGATTAAGA
B2: pZmRD21 HSE probe (dsDNA)
DNA 1: TATCGGTTTTTTTAGAAGATATTATGGC
DNA 2: GCCATAATATCTTCTAAAAAAACCGATA
B3: pZmCAT1 HSE probe (dsDNA)
DNA 1: GAAGATGAGCTTCTAGGACTGTTAGA
DNA 2: TCTAACAGTCCTAGAAGCTCATCTTC
B4: pZmAOS1 HSE probe (dsDNA)
DNA 1: GTCAAGTCGGGTCTAGAAACTCATAGGCA
DNA 2: TGCCTATGAGTTTCTAGACCCGACTTGAC
B5: pZmZEP1 HSE probe (dsDNA)
DNA 1: GGGTGTTTTTCTGGAATCATGCA
DNA 2: TGCATGATTCCAGAAAAACACCC

molecular target: ZmHsf28 (Zea mays, UniProt K7V9Y4 1-267); assay: EMSA; Chemiluminescence EMSA kit (Beyotime); buffer, salt, pH and temperature not stated; unlabeled probes as competitors; conditions: protein: recombinant; tags: His (pET28a, Ni-NTA); chain copies: 3; blunt
Sequence (K7V9Y4 entry or part of it): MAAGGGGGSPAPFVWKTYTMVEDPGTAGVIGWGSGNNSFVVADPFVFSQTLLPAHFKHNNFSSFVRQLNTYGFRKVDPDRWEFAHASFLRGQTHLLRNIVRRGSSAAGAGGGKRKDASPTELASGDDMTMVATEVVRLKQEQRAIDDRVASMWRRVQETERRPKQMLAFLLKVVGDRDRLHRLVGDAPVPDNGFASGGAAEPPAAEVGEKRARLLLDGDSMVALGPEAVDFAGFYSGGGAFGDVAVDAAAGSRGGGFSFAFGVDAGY

Binding result, binds:
B1
B2
B3
B4
B5
